Results: PMC3923242, “New function for Escherichia coli xanthosine phophorylase (xapA): genetic and biochemical evidences on its participation in NAD^+ salvage from nicotinamide” (BMC Microbiology, 2014)

Substrate: NC(=O)c1cccnc1
Test: purified protein
Assay type: biochemical, Escherichia coli
Settings: 20 mM ribose-1-phosphate, 50 mM MES pH 6.0, 37 °C, 30 min, 0.1 mg/ml xapA, NR synthesis direction

B1: xanthosine phosphorylase (xapA; purine nucleoside phosphorylase II, PNP-II) (Escherichia coli K-12) (protein)
chain: MSQVQFSHNPLFCIDIIKTYKPDFTPRVAFILGSGLGALADQIENAVAISYEKLPGFPVSTVHGHAGELVLGHLQGVPVVCMKGRGHFYEGRGMTIMTDAIRTFKLLGCELLFCTNAAGSLRPEVGAGSLVALKDHINTMPGTPMVGLNDDRFGERFFSLANAYDAEYRALLQKVAKEEGFPLTEGVFVSYPGPNFETAAEIRMMQIIGGDVVGMSVVPEVISARHCDLKVVAVSAITNMAEGLSDVKLSHAQTLAAAELSKQNFINLICGFLRKIA
notes: ORF from E. coli genomic DNA in pET28a (EcoRI/HindIII), expressed in E. coli Rosetta (DE3), Ni-NTA purified (His-tag), tag removal not described
With B1 the Km was 5.81 mM.
